The series has as its system MS2 coat protein. Briefly: apparent KD of MS2 coat protein; designed switch direction (-1 OFF switch, 1 ON switch): -1; higher = weaker reporter binding. In a few lines:
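An oligonucleotide input, 200 uM small-molecule ligand, or no input was present during titration of SNAP-549-labelled MS2 coat protein, which was doubled from 0.7 or 1.5 nM to 3 µM. Designed RNA switches had been transcribed on Illumina chips by stalled E. coli RNA polymerase. Apparent KD per design is the median over clusters of curves fitted to normalised cluster fluorescence.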

[1] abbreviates: input ligand: microRNA oligo, concentration not stated.
[2] abbreviates: Eterna round: R95, input ligand: FMN 200 uM.
Setting [3] is: Eterna round: R95, input ligand: microRNA oligo, concentration not stated.
Where [4] appears, read: Eterna round: R95, input ligand: none.

In the case of “ACAUGAGGAUCACCCAUGUAAUCAUGAUGGCUGAUGUAGAGCUAGGAUAUGAGUGGCUUUCUAUCUCAGAAGGAGCUAGACUGG [Deportation 41 - Jieux - Exclusion NG 3] (Eterna round: R96, puzzle: Exclusion NG 3)”, the “apparent KD of MS2 coat protein” value (input ligand: FMN 200 uM) came out at 29.3 nM, the “apparent KD of MS2 coat protein” value under setting [1] came to 18.1 nM and the “apparent KD of MS2 coat protein” value (input ligand: none) worked out at 34.9 nM.
In the case of “AGAAGUGCCGAGGAUAUCCAGGCAAUCUCGUUCGGAGAAGGCGGCACUUGAGGAUCACCCAAGUGCUCCAAAAG [Essoatxe] (Eterna round: R97, puzzle: Exclusion 6)”, the “apparent KD of MS2 coat protein” value was found to be 59.2 nM (input ligand: FMN 200 uM) and 18.9 nM (input ligand: none).
The matching figures for “AUAUUGUGAGGAUAUGAACUUAGUUUCGAAAGAUACUAAGUUCAGAAGGCACAUGAGGAUCACCCAUGUUUCUC [Long static hairpin v21] (Eterna round: R97, puzzle: Exclusion 4)”: 597 nM and 79.8 nM.
As to “CUAGUCCGAGGAUAUAUUAUGUGAUACAUGAGGAUCACCCAUGUUAUAUGAUGGAUGUUAAUAGAAGGCGGACUAG [Mat - Exclusion 5 - JL mod - D72] (puzzle: Exclusion 5)”, the “apparent KD of MS2 coat protein” value is, setting by setting: under setting [2], 246 nM; under setting [3], 118 nM; under setting [4], 110 nM.
Consider “CUGAGCAGACGGAGAUCCAACAUGAGGAUCACCCAUGUCUCAAAAGCUUAUUGCUCGUCUUAUCCUCCUCUGUUCAC [Mat - Sensor, turn-off var - Eli Mod - D54] (Eterna round: R97, puzzle: Sensor, turn-off variant 1)”, for which the “apparent KD of MS2 coat protein” value reads like this: (input ligand: FMN 200 uM) 26.9 nM; (input ligand: none) 26.7 nM.
For “AAUAACAGAGGAUAUACUGUUUUAUGUGUUUAUUAUUUUGAACAUGAGGAUCACCCAUGUAGAAGGCUGAAUAA [JMF 21] (puzzle: Exclusion 2)”, the “apparent KD of MS2 coat protein” value under setting [3] came to 22.2 nM.
As for “AAGUACCGUCACGAUAGUGAUGGUACAACAAGUAUGUGAACAUGAGGAUCACCCAUGUCCUCUUUUGCUCGUCUUAU [Sensor 3 - 89] (puzzle: Sensor v3, turn-off variant 2)”, the “apparent KD of MS2 coat protein” value by setting is: under setting [2], 313 nM; under setting [3], 22.3 nM; under setting [4], 309 nM.
The matching figures for “AGUACUAACACGAAAGUGUUAGUACUAUAAGCUUGUGAAACAUGAGGAUCACCCAUGUCCUCAUAAGCUCGUCUUAU [Mat - Sensor v3 - Turn-off var 2 - D102] (puzzle: Sensor v3, turn-off variant 2)”: 17.3 nM, 780 nM and 17 nM.
Consider “GGUUUACAAGGAUAUACAAAGGUCUUGUGAUCUGUGCGAGGACAUGAGGAUCACCCAUGUAGAAGGUGUCUGCU [Eternabot (L2) Solution 77] (Eterna round: R97, puzzle: Exclusion 2)”, for which the “apparent KD of MS2 coat protein” value (input ligand: FMN 200 uM) amounted to 193 nM and the “apparent KD of MS2 coat protein” value (input ligand: none) was 114 nM.
Regarding “AGUUGGCGAGGAUAUACAUGAGGAUCACCCAUGUGAAGAAGAAGAGUGAGGAAGAAAAGUAGAAGGCGCUGACA [Mat - Exclusion 3 - Mod of Salish D38] (puzzle: Exclusion 3)”, the “apparent KD of MS2 coat protein” value is, setting by setting: under setting [2], 87.9 nM; under setting [3], 84 nM; under setting [4], 50.7 nM.
Turning to “AAAGAACAUGAGGAUCACCCAUGUGAGGAUAUGUAAGGAUAGGACCGAAGAAGCGAGAACAGAAGGCACAGAGG [JR_Exclu1_Sub069] (puzzle: Exclusion 1)”, the “apparent KD of MS2 coat protein” value reads like this: under setting [2], 35 nM; under setting [3], 23.4 nM; under setting [4], 18.6 nM.
In the case of “AGCUGUGGCCGAGGAUAUCCAGCCUUAAAUACCGACGUAUAGUCGGACAUGAGGAUCACCCAUGUGGAGAAGGCGGUCUCAGCA [Eli eng2 - 045] (Eterna round: R96, puzzle: Exclusion NG 2)”, the “apparent KD of MS2 coat protein” value is, setting by setting: (input ligand: FMN 200 uM) 126 nM; under setting [1], 36.4 nM; (input ligand: none) 43.6 nM.
As to “CACACCUCCGUCAGGAUAUUAAGGCACCGCCGCCAUGAGAAGGGACAUGAGGAUCACCCAUGUUAAUCGUGGAA [Betibier] (Eterna round: R97, puzzle: Brourd's mod of Exclusion 4)”, the “apparent KD of MS2 coat protein” value is, setting by setting: (input ligand: FMN 200 uM) 226 nM; (input ligand: none) 20.5 nM.
Regarding “CACCGUUACGUAGGAUAUGUUACAUGAGGAUCACCCAUGUAAUAAAUGAGAAUUUCGAAUGUAAUACAGAAGGACGGAAUCGGC [Ostracism 70 - Jieux - Exclusion NG 2] (Eterna round: R96, puzzle: Exclusion NG 2)”, the “apparent KD of MS2 coat protein” value by setting is: (input ligand: FMN 200 uM) 53.3 nM; under setting [1], 26 nM; (input ligand: none) 32 nM.
For the sequence “CUGGUCCGAGGAUAUAUUAAGUGAUACAUGAGGAUCACCCAUGUAAUUUGAUGGAAAUAAAUAGAAGGCGGACUAG [Mat - Exclusion 5 - JL mod - D44] (puzzle: Exclusion 5)”, the “apparent KD of MS2 coat protein” value reads like this: under setting [2], 34.2 nM; under setting [3], 45.9 nM; under setting [4], 53.4 nM.
Consider “GCCGUAAAUGUGAGGAUAUACCUAUGGAUACAUAGGUAGAAGGCACAUGAGGAUCACCCAUGUUCUUAAUCGGC [Eli BMX r4m2] (Eterna round: R97, puzzle: Brourd's mod of Exclusion 4)”, for which the “apparent KD of MS2 coat protein” value runs as follows: (input ligand: FMN 200 uM) 567 nM; (input ligand: none) 185 nM.
For the sequence “AAACCGGGCGCACCUCAGUCACAUGAGGAUCACCCAUGUUCUGAGGAUAUGCAUCCAAACGGAACGCAGAAGGCGGAACGUAAC [Bibidianer] (Eterna round: R96, puzzle: Exclusion NG 3)”, the “apparent KD of MS2 coat protein” value by setting is: (input ligand: FMN 200 uM) 10.5 nM; under setting [1], 8.52 nM; (input ligand: none) 13 nM.
“CUUUUGUGAGGAUAUCAGUAGUAAAUAAAUAAAUUAACUACUGAGAAGGCACAUGAGGAUCACCCAUGUUCCUU [Mat - Exclusion 4 - Mod of Salish - D65] (puzzle: Exclusion 4)”: the “apparent KD of MS2 coat protein” value under setting [3] was determined as 13.7 nM.
For “UAUAUGUCAGGAUAUUAGUAGUAAAUAAAUAAAAUUAUUACUGAGAAGGGACAUGAGGAUCACCCAUGUACCUU [Salish 062 v32] (Eterna round: R97, puzzle: Exclusion 4)”, the “apparent KD of MS2 coat protein” value is, setting by setting: (input ligand: FMN 200 uM) 16.1 nM; (input ligand: none) 15.5 nM.
The matching figures for “ACAAGCUUUUUCAUAUCUUACAUGAGGAUCACCCAUGUUUUUGCAAUUAUGUUUGGGCUCUUUUGUGCUCGUCUUAU [JR_STOV1_Sub049] (Eterna round: R97, puzzle: Sensor, turn-off variant 1)”: 14.9 nM and 15.4 nM.
Regarding “GCAAGCUUAAUCACUAUGAACAUGAGGAUCACCCAUGUAUAAGGUAUUACUUUUGGGCCCUUUAUUACUCGUCUUAU [JR_STOV1_Sub031] (Eterna round: R97, puzzle: Sensor, turn-off variant 1)”, the “apparent KD of MS2 coat protein” value runs as follows: (input ligand: FMN 200 uM) 51.9 nM; (input ligand: none) 54.4 nM.
For “AGUAGUAGUAUCCGAUCCUACAUGAGGAUCACCCAUGUGGCUAGACGUGCACGCGAUGCUCGUCAGACUACCAGAUG [salish99_TOv1_r3_038] (puzzle: Sensor v3, turn-off variant 1)”, the “apparent KD of MS2 coat protein” value under setting [2] is 404 nM, the “apparent KD of MS2 coat protein” value under setting [3] was found to be 269 nM and the “apparent KD of MS2 coat protein” value under setting [4] was found to be 506 nM.

The values above are taken from the supplement of paper PMC9170038.
